Data reported in the Human Domainome abundance scans (Beltran et al. 2025).
± gives the uncertainty stated by the source.

B1: GA-binding protein alpha chain, residues 172 to 250; numbered along this chain, Q06546 (parent)
chain: GYRKEQERLGIPYDPIQWSTDQVLHWVVWVMKEFSMTDIDLTTLNISGRELCSLNQEDFFQRVPRGEILWSHLELLRKY

Variants of: B1
Assay: abundance fitness (aPCA) (normalised: wild type 0, dead -1); higher = more abundant; growth selection in yeast, the domain comes from the species named
Settings: Homo sapiens

Abundance fitness: each site, then its substitutions
S47: V -0.418 ± 0.047, Q -0.276 ± 0.065, Y -0.637 ± 0.15, E -0.061 ± 0.058, F -0.866 ± 0.16, D -0.07 ± 0.099, H -0.266 ± 0.078, P -0.04 ± 0.038, K -0.137 ± 0.062, I -0.279 ± 0.25, R -0.277 ± 0.034, N -0.041 ± 0.1, G -0.14 ± 0.032, W -0.812 ± 0.093, T 0.03 ± 0.042, M -0.446 ± 0.086, A -0.161 ± 0.041, C -0.039 ± 0.073
E57: S -0.051 ± 0.042, W -0.135 ± 0.068, K -0.122 ± 0.089, T -0.068 ± 0.061, A 0.011 ± 0.047, G -0.045 ± 0.042, Y 0.009 ± 0.098, C -0.058 ± 0.086, Q -0.046 ± 0.063, P -0.098 ± 0.043, M -0.139 ± 0.073, R -0.082 ± 0.037, I -0.153 ± 0.14, L -0.076 ± 0.044, N -0.192 ± 0.099, V -0.081 ± 0.04, H -0.023 ± 0.093, D -0.063 ± 0.089
D40: K -0.23 ± 0.066, G -0.239 ± 0.042, W -0.989 ± 0.12, I -0.533 ± 0.1, V -0.44 ± 0.039, N -0.043 ± 0.075, R -0.292 ± 0.032, H -0.223 ± 0.096, E -0.112 ± 0.05, C -0.281 ± 0.07, T -0.263 ± 0.059, P -0.111 ± 0.049, Q -0.268 ± 0.082, Y -0.698 ± 0.18, M -0.543 ± 0.058, S -0.124 ± 0.032, A -0.226 ± 0.037
C52: T -0.226 ± 0.063, L -0.077 ± 0.03, Y -0.431 ± 0.14, Q -0.615 ± 0.11, A -0.22 ± 0.034, K -0.887 ± 0.17, E -0.457 ± 0.073, N -0.47 ± 0.13, I 0.076 ± 0.095, P -1.03 ± 0.2, G -0.575 ± 0.041, S -0.335 ± 0.045, F -0.333 ± 0.064, V -0.122 ± 0.045
L54: S -0.693 ± 0.072, V -0.341 ± 0.058, G -0.791 ± 0.072, K -0.649 ± 0.16, D -0.842 ± 0.35, I -0.157 ± 0.095, R -0.682 ± 0.046, F -0.051 ± 0.07, Q -0.446 ± 0.089, H -0.486 ± 0.25, E -0.484 ± 0.17, M -0.009 ± 0.061, Y -0.273 ± 0.34, W -0.021 ± 0.049, C -0.374 ± 0.084
L41: E -0.153 ± 0.059, W -0.132 ± 0.048, R -0.191 ± 0.033, I 0.006 ± 0.077, A -0.049 ± 0.047, M -0.008 ± 0.055, H -0.063 ± 0.068, V -0.024 ± 0.038, G -0.134 ± 0.033, Y -0.025 ± 0.1, T -0.061 ± 0.057, P -0.028 ± 0.038, S -0.127 ± 0.042, F -0.094 ± 0.059, C -0.056 ± 0.055, N -0.258 ± 0.088, D -0.386 ± 0.095, Q -0.117 ± 0.056
E50: M -0.24 ± 0.071, W -0.672 ± 0.049, H -0.2 ± 0.11, K -0.041 ± 0.088, I -0.156 ± 0.073, N -0.252 ± 0.091, S -0.291 ± 0.039, R -0.249 ± 0.034, P -0.94 ± 0.091, D -0.041 ± 0.06, G -0.594 ± 0.038, Y -0.117 ± 0.076, A -0.074 ± 0.041, C -0.088 ± 0.075, Q 0.013 ± 0.056, L -0.201 ± 0.031
Q56: R -0.008 ± 0.037, G -0.245 ± 0.04, P -0.178 ± 0.055, W -0.351 ± 0.065, M -0.107 ± 0.066, Y 0.025 ± 0.099, L -0.291 ± 0.043, I -0.133 ± 0.088, C -0.162 ± 0.068, E -0.015 ± 0.054, K -0.004 ± 0.091, N -0.455 ± 0.13, D -0.262 ± 0.091, V -0.184 ± 0.047, H -0.049 ± 0.083, A -0.044 ± 0.047, F -0.087 ± 0.097, T -0.132 ± 0.066
D58: E -0.095 ± 0.044, A -0.041 ± 0.043, C -0.177 ± 0.063, G -0.071 ± 0.03
T42: I -0.181 ± 0.063, L -0.162 ± 0.035, N -0.083 ± 0.12, S -0.011 ± 0.034, C -0.051 ± 0.047, D -0.011 ± 0.069, Q -0.032 ± 0.054, A -0.004 ± 0.04, F -0.215 ± 0.058, K -0.131 ± 0.067, V -0.122 ± 0.041, Y -0.1 ± 0.083, P -0.106 ± 0.037, H -0.075 ± 0.06, R -0.014 ± 0.031
T43: S 0.014 ± 0.038, A 0 ± 0.041, R -0.027 ± 0.029, C 0.013 ± 0.066, N -0.037 ± 0.053, Q -0.016 ± 0.055, H -0.149 ± 0.075, I -0.202 ± 0.074, Y -0.005 ± 0.1, F -0.299 ± 0.15, V -0.065 ± 0.041, D 0.034 ± 0.081, M -0.043 ± 0.075, K 0.102 ± 0.072, P 0.013 ± 0.041, W -0.123 ± 0.048
L51: H -0.928 ± 0.24, D -0.786 ± 0.3, T -0.825 ± 0.1, E -0.818 ± 0.13, K -1.13 ± 0.32, M -0.163 ± 0.048, F -0.815 ± 0.12, A -0.982 ± 0.1, P -0.746 ± 0.082, R -0.813 ± 0.064, G -0.92 ± 0.063, V -0.652 ± 0.047, N -0.897 ± 0.27, Q -0.951 ± 0.27, W -1.04 ± 0.15, I -0.374 ± 0.072
I46: E -0.939 ± 0.22, W -0.257 ± 0.043, M 0.069 ± 0.06, R -0.909 ± 0.09, N -0.644 ± 0.27, T -0.654 ± 0.078, S -1 ± 0.096, K -0.835 ± 0.24, C -0.17 ± 0.06, A -0.584 ± 0.054, L -0.034 ± 0.042, V -0.109 ± 0.043, G -0.796 ± 0.073, P -1 ± 0.12, H -0.874 ± 0.35, F -0.237 ± 0.1, Q -0.828 ± 0.16
S53: V -0.331 ± 0.065, L -0.108 ± 0.042, D 0.076 ± 0.089, Q -0.085 ± 0.064, N -0.033 ± 0.085, P -0.522 ± 0.072, H -0.171 ± 0.077, M -0.121 ± 0.055, W -0.381 ± 0.064, A -0.063 ± 0.055, T -0.144 ± 0.09, R -0.057 ± 0.037, G -0.068 ± 0.037, C -0.061 ± 0.061, F -0.269 ± 0.063
N45: D -0.148 ± 0.089, M -0.054 ± 0.078, K 0.032 ± 0.071, Y -0.191 ± 0.086, Q -0.086 ± 0.062, A 0.003 ± 0.044, W -0.276 ± 0.045, R -0.038 ± 0.032, I -0.251 ± 0.13, F -0.348 ± 0.11, S -0.019 ± 0.033, P -0.373 ± 0.04, T -0.01 ± 0.046, V -0.122 ± 0.039, E -0.039 ± 0.047, L -0.195 ± 0.037, C -0.063 ± 0.066, H 0.015 ± 0.068
R49: N -0.257 ± 0.17, F -0.113 ± 0.073, V -0.082 ± 0.041, A 0.006 ± 0.038, C -0.109 ± 0.066, S -0.006 ± 0.034, G -0.125 ± 0.031, W -0.143 ± 0.043, L -0.072 ± 0.034, Y -0.077 ± 0.066, H -0.152 ± 0.1, Q -0.021 ± 0.061, I -0.203 ± 0.12, T -0.085 ± 0.053, D -0.1 ± 0.087, P 0.001 ± 0.052, K -0.086 ± 0.08, E 0.041 ± 0.046, M 0.042 ± 0.061
D38: M -0.364 ± 0.078, N -0.082 ± 0.072, V -0.364 ± 0.046, R -0.168 ± 0.031, I -0.626 ± 0.14, S -0.063 ± 0.039, H -0.055 ± 0.07, G -0.031 ± 0.035, T -0.08 ± 0.06, K -0.091 ± 0.057, Q -0.099 ± 0.077, Y -0.261 ± 0.055, P -0.009 ± 0.037, W -0.149 ± 0.041
N55: S 0.012 ± 0.035, L -0.252 ± 0.03, F -0.712 ± 0.087, H -0.124 ± 0.063, M -0.291 ± 0.054, R -0.014 ± 0.033, D 0.008 ± 0.054, Y -0.274 ± 0.089, E -0.037 ± 0.078, T -0.025 ± 0.047, K -0.189 ± 0.15, C -0.124 ± 0.051, P -0.039 ± 0.048, G -0.02 ± 0.035, A -0.065 ± 0.041, I -0.244 ± 0.086, W -0.782 ± 0.13, V -0.148 ± 0.04
G48: L -0.982 ± 0.12, Q -1.02 ± 0.27, D -0.804 ± 0.14, V -0.884 ± 0.084, M -0.99 ± 0.3, P -0.633 ± 0.066, C -0.919 ± 0.14, R -0.944 ± 0.098, F -0.796 ± 0.16, A -0.788 ± 0.073, S -0.804 ± 0.082, K -0.951 ± 0.39, N -0.578 ± 0.39, W -0.84 ± 0.13, T -0.813 ± 0.23, H -0.305 ± 0.19
L44: Q -1.09 ± 0.21, M -0.019 ± 0.057, E -0.876 ± 0.14, P -0.865 ± 0.055, C -0.282 ± 0.063, R -0.989 ± 0.095, D -0.945 ± 0.33, F -0.108 ± 0.054, K -0.862 ± 0.16, G -0.711 ± 0.067, S -0.745 ± 0.079, H -0.825 ± 0.2, A -0.715 ± 0.066, V -0.193 ± 0.046
I39: R -0.281 ± 0.032, C -0.042 ± 0.062, Y -0.317 ± 0.1, M -0.021 ± 0.064, G -0.185 ± 0.036, T -0.035 ± 0.057, W -0.145 ± 0.028, Q -0.22 ± 0.06, S -0.275 ± 0.042, D -0.288 ± 0.12, V 0.037 ± 0.034, F -0.011 ± 0.098, P -0.17 ± 0.045, N -0.07 ± 0.091, H -0.06 ± 0.076, E -0.118 ± 0.077, A -0.192 ± 0.046, K -0.244 ± 0.093
